Laboratory results: patent publication US20140274782A1, “AFFINITY REAGENTS AND METHODS FOR DETECTION, PURIFICATION, AND PROTEOMIC ANALYSIS OF METHYLATED PROTEINS” (The Board of Trustees of the Leland Stanford Junior …, priority 2013, published 2014)

What was measured:
Test in all cases: ProtoArray methylated with G9a SET domain
[1] = target: CUTC, G9a-methylated (human) (UniProt Q9NTM9)
[2] = target: C12orf23, G9a-methylated (human) (UniProt Q8WUH6)
[3] = target: CD79A, G9a-methylated (human) (UniProt P11912)
[4] = target: GYPC, G9a-methylated (human) (UniProt P04921)
[5] = target: ACSL4, G9a-methylated (human) (UniProt O60488)
[6] = target: VPS29, G9a-methylated (human) (UniProt Q9UBQ0)
[7] = target: DGKA, G9a-methylated (human) (UniProt P23743)
[8] = target: TMED5, G9a-methylated (human) (UniProt Q9Y3A6)
[9] = target: CRB3, G9a-methylated (human) (UniProt Q9BUF7)
Chain of CRB3, G9a-methylated (human) (Q9BUF7 27-120 limits assumed): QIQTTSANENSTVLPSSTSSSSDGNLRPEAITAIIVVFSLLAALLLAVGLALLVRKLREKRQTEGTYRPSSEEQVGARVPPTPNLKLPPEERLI

[10] = target: KIFC1, G9a-methylated (human) (UniProt Q9BW19)
[11] = target: SNFT, G9a-methylated (human) (UniProt Q9NR55)
[12] = target: RTN1, G9a-methylated (human) (UniProt Q16799)
Chain of RTN1, G9a-methylated (human) (Q16799 other isoform, or with tags, fused parts or gaps limits assumed): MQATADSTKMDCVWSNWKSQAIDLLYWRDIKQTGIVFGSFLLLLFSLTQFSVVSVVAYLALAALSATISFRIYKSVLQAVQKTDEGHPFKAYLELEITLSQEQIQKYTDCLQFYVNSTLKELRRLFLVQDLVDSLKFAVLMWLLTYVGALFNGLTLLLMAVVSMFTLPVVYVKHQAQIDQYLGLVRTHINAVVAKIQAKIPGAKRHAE

[13] = target: SMYD5, G9a-methylated (human) (UniProt Q6GMV2)
[14] = target: C10orf58, G9a-methylated (human) (UniProt Q9BRX8)
Chain of C10orf58, G9a-methylated (human) (Q9BRX8 whole entry): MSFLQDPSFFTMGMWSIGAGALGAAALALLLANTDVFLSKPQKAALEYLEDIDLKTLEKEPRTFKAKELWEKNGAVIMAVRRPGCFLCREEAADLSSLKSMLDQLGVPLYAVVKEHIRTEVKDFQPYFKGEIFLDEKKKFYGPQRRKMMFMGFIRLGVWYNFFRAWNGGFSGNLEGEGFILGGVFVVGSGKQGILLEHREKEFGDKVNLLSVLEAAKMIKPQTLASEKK

[15] = target: NME7, G9a-methylated (human) (UniProt Q9Y5B8)
[16] = target: GAL, G9a-methylated (human) (UniProt P22466)
[17] = target: FTH1 (hit 104), G9a-methylated (human) (UniProt P02794)
Chain of FTH1 (hit 104), G9a-methylated (human) (P02794 whole entry): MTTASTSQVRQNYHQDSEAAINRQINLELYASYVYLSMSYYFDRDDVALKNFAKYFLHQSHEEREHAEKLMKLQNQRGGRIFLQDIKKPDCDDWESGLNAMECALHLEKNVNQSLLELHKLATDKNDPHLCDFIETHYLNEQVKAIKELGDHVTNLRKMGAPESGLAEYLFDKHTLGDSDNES

[18] = target: SCGB2A2, G9a-methylated (human) (UniProt Q13296)
Chain of SCGB2A2, G9a-methylated (human) (Q13296 19-93 limits assumed): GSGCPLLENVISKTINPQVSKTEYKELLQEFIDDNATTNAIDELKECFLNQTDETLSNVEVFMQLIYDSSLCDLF

[19] = target: SCGB1A1, G9a-methylated (human) (UniProt P11684)
[20] = target: STK17B, G9a-methylated (human) (UniProt O94768)
Chain of STK17B, G9a-methylated (human) (O94768 whole entry): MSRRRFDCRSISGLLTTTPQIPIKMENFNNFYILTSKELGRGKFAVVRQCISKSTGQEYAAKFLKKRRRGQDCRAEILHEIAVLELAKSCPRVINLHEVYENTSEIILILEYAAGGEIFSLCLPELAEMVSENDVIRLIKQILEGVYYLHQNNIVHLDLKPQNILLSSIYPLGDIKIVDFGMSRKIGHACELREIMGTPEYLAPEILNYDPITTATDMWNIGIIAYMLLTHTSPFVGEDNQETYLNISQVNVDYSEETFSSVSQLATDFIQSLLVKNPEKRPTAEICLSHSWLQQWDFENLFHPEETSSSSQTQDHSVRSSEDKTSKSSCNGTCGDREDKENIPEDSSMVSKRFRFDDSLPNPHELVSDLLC

[21] = target: C12orf62, G9a-methylated (human) (UniProt Q96I36)
Chain of C12orf62, G9a-methylated (human) (Q96I36 whole entry): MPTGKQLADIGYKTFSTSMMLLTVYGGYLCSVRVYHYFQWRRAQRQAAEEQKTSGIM

[22] = target: SSR4, G9a-methylated (human) (UniProt P51571)
Chain of SSR4, G9a-methylated (human) (P51571 24-173 limits assumed): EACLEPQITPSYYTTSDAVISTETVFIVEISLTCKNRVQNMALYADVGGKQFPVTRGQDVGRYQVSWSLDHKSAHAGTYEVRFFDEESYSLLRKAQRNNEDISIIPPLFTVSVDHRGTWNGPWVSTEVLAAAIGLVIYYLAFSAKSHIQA

[23] = target: CLDN15, G9a-methylated (human) (UniProt P56746)
[24] = target: CDKL5, G9a-methylated (human) (UniProt O76039)
Chain of CDKL5, G9a-methylated (human) (O76039 other isoform, or with tags, fused parts or gaps limits assumed): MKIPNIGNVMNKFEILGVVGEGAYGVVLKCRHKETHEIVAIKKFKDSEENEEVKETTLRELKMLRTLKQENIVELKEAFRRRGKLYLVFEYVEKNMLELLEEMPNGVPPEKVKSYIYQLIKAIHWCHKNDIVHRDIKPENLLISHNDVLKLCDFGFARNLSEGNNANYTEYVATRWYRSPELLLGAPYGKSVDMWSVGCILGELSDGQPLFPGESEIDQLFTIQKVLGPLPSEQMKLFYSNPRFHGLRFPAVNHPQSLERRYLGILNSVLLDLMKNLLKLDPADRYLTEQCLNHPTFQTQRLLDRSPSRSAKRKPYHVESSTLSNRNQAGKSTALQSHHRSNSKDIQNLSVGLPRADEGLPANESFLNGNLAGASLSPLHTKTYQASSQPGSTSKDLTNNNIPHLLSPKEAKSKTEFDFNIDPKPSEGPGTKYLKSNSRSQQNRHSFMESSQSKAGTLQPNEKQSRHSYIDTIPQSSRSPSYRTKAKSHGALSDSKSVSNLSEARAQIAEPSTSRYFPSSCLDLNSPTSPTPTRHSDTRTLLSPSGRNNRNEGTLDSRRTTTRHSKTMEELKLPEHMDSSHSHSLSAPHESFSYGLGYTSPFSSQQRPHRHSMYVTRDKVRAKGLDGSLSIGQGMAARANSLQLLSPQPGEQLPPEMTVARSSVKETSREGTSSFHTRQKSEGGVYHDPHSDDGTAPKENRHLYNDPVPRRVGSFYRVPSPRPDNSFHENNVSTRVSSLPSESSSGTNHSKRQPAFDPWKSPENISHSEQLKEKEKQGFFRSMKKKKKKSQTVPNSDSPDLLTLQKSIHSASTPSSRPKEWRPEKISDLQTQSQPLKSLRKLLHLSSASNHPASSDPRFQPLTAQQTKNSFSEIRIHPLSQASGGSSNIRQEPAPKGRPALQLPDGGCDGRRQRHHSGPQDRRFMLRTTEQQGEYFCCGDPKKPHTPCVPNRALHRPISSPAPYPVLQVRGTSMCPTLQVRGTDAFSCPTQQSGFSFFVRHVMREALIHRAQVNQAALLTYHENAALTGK

[25] = target: GPR108, G9a-methylated (human) (UniProt Q9NPR9)
[26] = target: C11orf73, G9a-methylated (human) (UniProt Q53FT3)
[27] = target: CDC2, G9a-methylated (human) (UniProt P06493)
Chain of CDC2, G9a-methylated (human) (P06493 whole entry): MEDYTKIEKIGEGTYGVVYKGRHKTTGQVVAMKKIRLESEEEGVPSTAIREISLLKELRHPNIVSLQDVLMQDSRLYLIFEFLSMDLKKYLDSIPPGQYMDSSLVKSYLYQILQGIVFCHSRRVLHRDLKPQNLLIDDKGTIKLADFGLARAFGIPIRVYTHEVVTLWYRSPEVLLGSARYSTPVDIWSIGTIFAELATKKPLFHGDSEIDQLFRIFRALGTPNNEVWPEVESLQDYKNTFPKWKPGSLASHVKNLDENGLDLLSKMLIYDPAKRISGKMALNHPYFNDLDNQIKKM

[28] = target: PAEP, G9a-methylated (human) (UniProt P09466)
Chain of PAEP, G9a-methylated (human) (P09466 19-180 limits assumed): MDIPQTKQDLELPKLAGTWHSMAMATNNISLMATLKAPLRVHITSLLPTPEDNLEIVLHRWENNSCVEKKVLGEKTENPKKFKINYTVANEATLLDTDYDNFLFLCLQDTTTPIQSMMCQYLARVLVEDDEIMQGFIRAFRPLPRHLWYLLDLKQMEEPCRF

[29] = target: MGC10433 (RNA-binding protein 42), G9a-methylated (human) (UniProt Q9BTD8)
[30] = target: AP1S1, G9a-methylated (human) (UniProt P61966)
Chain of AP1S1, G9a-methylated (human) (P61966 whole entry): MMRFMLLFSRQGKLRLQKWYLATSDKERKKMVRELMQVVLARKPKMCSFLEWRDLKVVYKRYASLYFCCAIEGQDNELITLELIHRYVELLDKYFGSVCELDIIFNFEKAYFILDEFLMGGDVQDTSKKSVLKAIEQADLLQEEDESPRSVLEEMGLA

[31] = target: LPAL2, G9a-methylated (human) (UniProt Q16609)
Chain of LPAL2, G9a-methylated (human) (Q16609 22-132 limits assumed): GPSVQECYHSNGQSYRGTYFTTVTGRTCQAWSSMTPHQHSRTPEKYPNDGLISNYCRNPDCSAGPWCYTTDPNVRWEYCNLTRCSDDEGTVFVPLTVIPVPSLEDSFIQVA

[32] = target: CALN1, G9a-methylated (human) (UniProt Q9BXU9)
[33] = target: HS3ST1, G9a-methylated (human) (UniProt O14792)
Chain of HS3ST1, G9a-methylated (human) (O14792 21-307 limits assumed): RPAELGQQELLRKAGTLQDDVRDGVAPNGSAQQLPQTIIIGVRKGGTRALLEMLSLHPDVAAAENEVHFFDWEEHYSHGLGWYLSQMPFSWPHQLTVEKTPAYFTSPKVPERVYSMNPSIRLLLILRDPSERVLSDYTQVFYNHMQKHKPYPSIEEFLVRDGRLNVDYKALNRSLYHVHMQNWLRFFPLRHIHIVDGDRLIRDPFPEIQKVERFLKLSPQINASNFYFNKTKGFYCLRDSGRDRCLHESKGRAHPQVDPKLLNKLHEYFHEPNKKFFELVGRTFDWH

[34] = target: PTCD2, G9a-methylated (human) (UniProt Q8WV60)
[35] = target: ZRANB1, G9a-methylated (human) (UniProt Q9UGI0)
Chain of ZRANB1, G9a-methylated (human) (Q9UGI0 whole entry): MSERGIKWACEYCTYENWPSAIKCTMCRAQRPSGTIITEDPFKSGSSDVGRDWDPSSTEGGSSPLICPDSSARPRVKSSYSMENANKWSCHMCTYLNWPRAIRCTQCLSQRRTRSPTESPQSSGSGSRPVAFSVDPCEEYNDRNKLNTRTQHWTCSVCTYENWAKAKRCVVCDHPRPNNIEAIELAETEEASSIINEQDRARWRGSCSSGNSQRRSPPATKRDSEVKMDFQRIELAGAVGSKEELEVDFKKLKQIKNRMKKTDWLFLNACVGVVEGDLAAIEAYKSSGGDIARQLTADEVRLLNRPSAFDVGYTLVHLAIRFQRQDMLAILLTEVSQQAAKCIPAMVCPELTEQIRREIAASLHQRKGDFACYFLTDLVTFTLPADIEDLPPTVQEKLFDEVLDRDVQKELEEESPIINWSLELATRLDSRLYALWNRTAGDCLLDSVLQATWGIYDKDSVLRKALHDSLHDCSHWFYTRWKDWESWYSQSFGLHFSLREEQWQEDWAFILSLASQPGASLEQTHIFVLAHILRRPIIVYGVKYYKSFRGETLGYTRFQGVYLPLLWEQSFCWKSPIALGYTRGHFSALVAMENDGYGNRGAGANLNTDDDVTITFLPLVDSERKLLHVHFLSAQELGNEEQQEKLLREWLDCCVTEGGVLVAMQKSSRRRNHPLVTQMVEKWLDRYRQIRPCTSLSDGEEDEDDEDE

[36] = target: LARP6, G9a-methylated (human) (UniProt Q9BRS8)
[37] = target: SH3YL1 (clone MGC:12275), G9a-methylated (human) (UniProt Q96HL8)
Chain of SH3YL1 (clone MGC:12275), G9a-methylated (human) (Q96HL8 whole entry): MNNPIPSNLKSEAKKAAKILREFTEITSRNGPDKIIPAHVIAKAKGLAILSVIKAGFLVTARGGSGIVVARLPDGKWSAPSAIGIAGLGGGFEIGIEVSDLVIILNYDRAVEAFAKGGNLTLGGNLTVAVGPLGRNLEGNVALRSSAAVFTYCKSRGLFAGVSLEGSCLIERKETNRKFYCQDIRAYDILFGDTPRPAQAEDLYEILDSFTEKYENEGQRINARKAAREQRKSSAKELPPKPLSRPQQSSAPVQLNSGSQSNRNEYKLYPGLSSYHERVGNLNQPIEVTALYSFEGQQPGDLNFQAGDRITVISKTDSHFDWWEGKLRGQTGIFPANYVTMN

[38] = target: CMTM3, G9a-methylated (human) (UniProt Q96MX0)
[39] = target: CA13, G9a-methylated (human) (UniProt Q8N1Q1)
[40] = target: ARL6IP1, G9a-methylated (human) (UniProt Q15041)
[41] = target: GHRL, G9a-methylated (human) (UniProt Q9UBU3)
[42] = target: KRR1, G9a-methylated (human) (UniProt Q13601)
[43] = target: PHF20L1, G9a-methylated (human) (UniProt A8MW92)
Chain of PHF20L1, G9a-methylated (human) (A8MW92 other isoform, or with tags, fused parts or gaps limits assumed): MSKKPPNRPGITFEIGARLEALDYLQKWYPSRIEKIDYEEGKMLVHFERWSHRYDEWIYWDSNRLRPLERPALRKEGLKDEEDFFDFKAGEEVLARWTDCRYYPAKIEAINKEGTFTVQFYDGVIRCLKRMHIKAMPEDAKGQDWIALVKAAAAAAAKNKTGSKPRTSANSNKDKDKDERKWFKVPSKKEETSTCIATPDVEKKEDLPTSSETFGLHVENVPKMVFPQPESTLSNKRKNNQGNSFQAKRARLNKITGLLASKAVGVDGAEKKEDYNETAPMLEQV

[44] = target: FKBP14, G9a-methylated (human) (UniProt Q9NWM8)
[45] = target: KCTD7, G9a-methylated (human) (UniProt Q96MP8)

Question: How did the G9a Average SNR [1] turn out when 3× Flag-3×MBT (designed binder) was run?
Answer: 13.6

Question: And the G9a Average SNR [2]?
Answer: 12.7

Question: And the G9a Average SNR [3]?
Answer: 13.8

Question: What about the G9a Average SNR [4] of the same substance?
Answer: 13.4

Question: And the G9a Average SNR [5]?
Answer: 13.5

Question: What about the G9a Average SNR [6] of the same substance?
Answer: 16.6

Question: And the G9a Average SNR [7]?
Answer: 15.5

Question: What about the G9a Average SNR [8] of the same substance?
Answer: 15.1

Question: What about the G9a Average SNR [9] of the same substance?
Answer: 15.2

Question: And the G9a Average SNR [10]?
Answer: 63.2

Question: And the G9a Average SNR [11]?
Answer: 18.1

Question: What about the G9a Average SNR [12] of the same substance?
Answer: 14.7

Question: What about the G9a Average SNR [13] of the same substance?
Answer: 20.7

Question: And the G9a Average SNR [14]?
Answer: 17

Question: And the G9a Average SNR [15]?
Answer: 14.1

Question: What about the G9a Average SNR [16] of the same substance?
Answer: 13.1

Question: What about the G9a Average SNR [17] of the same substance?
Answer: 30.4

Question: What about the G9a Average SNR [18] of the same substance?
Answer: 14.8

Question: And the G9a Average SNR [19]?
Answer: 19.6

Question: And the G9a Average SNR [20]?
Answer: 14.4

Question: What about the G9a Average SNR [21] of the same substance?
Answer: 14.9

Question: And the G9a Average SNR [22]?
Answer: 14.4

Question: And the G9a Average SNR [23]?
Answer: 25

Question: What about the G9a Average SNR [24] of the same substance?
Answer: 19.7

Question: And the G9a Average SNR [25]?
Answer: 19.2

Question: And the G9a Average SNR [26]?
Answer: 13.5

Question: What about the G9a Average SNR [27] of the same substance?
Answer: 25.3

Question: What about the G9a Average SNR [28] of the same substance?
Answer: 17.5

Question: What about the G9a Average SNR [29] of the same substance?
Answer: 14.1

Question: And the G9a Average SNR [30]?
Answer: 16.6

Question: What about the G9a Average SNR [31] of the same substance?
Answer: 33.3

Question: And the G9a Average SNR [32]?
Answer: 18.6

Question: What about the G9a Average SNR [33] of the same substance?
Answer: 13.3

Question: And the G9a Average SNR [34]?
Answer: 19.4

Question: What about the G9a Average SNR [35] of the same substance?
Answer: 13.2

Question: And the G9a Average SNR [36]?
Answer: 15.6

Question: What about the G9a Average SNR [37] of the same substance?
Answer: 12.9

Question: What about the G9a Average SNR [38] of the same substance?
Answer: 14.1

Question: And the G9a Average SNR [39]?
Answer: 13

Question: And the G9a Average SNR [40]?
Answer: 21.8

Question: And the G9a Average SNR [41]?
Answer: 24.5

Question: And the G9a Average SNR [42]?
Answer: 29.8

Question: What about the G9a Average SNR [43] of the same substance?
Answer: 21.5

Question: What about the G9a Average SNR [44] of the same substance?
Answer: 15

Question: And the G9a Average SNR [45]?
Answer: 14.7
